Experimental data reported in the RNAGym collection of RNA variant scans (doi:10.1093/molbev/msab373).

B1: Azoarcus group I ribozyme (parent)
chain: GUGCCUUGCGCCGGGAAACCACGCAAGGGAUGGUGUCAAAUUCGGCGAAACCUAAGCGCCCGCCCGGGCGUAUGGCAACGCCGAGCCAAGCUUCGGCGCCUGCGCCGAUGAAGGUGUAGAGACUAGACGGCACCCACCUAAGGCAAACGCUAUGGUGAAGGCAUAGUCCAGGGAGUGGCGAAAGUCACACAAACCGG

Variants of: B1
Experiment: reverse-splicing fitness (ratio to wild type); higher = more active; in vitro selection; Mg2+ level not given
How it was run: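 An in vitro group I ribozyme library with randomized positions was T7-transcribed and gel-purified. In triplicate, 10 pmol RNA in EPPS pH 7.5 was reacted with 50 pmoles of a 30-nt RNA substrate for 1 h at 37 °C across several added MgCl2 levels (1–48 mM), then stopped with EDTA. Products were reverse transcribed from a substrate-complementary primer, PCR-amplified and sequenced (HiSeq 4000). Fitness is a variant's read proportion after selection over that before, normalised to wild type.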

| Variant | reverse-splicing fitness |
| --- | --- |
| C82U A111C A120G A145G C150G U176A | 0.00693 |
| C82U A111C A120G A145G C150G U176G | 0.00607 |
| C82U A111C A120G A145G C150G U176C | 0.0103 |
| C82U A111C A120G A145G C150U C169U | 0.00958 |
| C82U A111C A120G A145G C150U C169G | 0.00984 |
| C82U A111C A120G A145G C150U C169A | 0.0103 |
| C82U A111C A120G A145C C150A U176G | 0.00348 |
| C82U A111C A120G A145C C150A U176C | 0.00967 |
| C82U A111C A120G A145C C150A U176A | 0.00897 |
| C82U A111C A120G A145U C150A C169G | 0.00681 |
| C82U A111C A120G A145U C150A C169A | 0.00826 |
| C82U A111C A120G A145U C150A C169U | 0.006 |
| C82U A111C A120G A145G C150G C169U U176G | 0.00643 |
| C82U A111C A120G A145G C150G C169U U176C | 0.0104 |
| C82U A111C A120G A145G C150G C169U U176A | 0.0116 |
| C82U A111C A120G A145U C150U C169A | 0.00896 |
| C82U A111C A120G A145U C150G C169U U176C | 0.0106 |
| C82U A111C A120G A145U C150G C169U U176G | 0.00419 |
| C82U A111C A120G A145U C150G C169U U176A | 0.00881 |
| C82U A111C A120G A145C C150G C169G | 0.00642 |
| C82U A111C A120G A145C C150G C169A | 0.00748 |

| Variant | reverse-splicing fitness |
| --- | --- |
| C82U A111C A120G A145C C150G C169U | 0.00662 |
| C82U A111C A120G A145C C150A C169U U176A | 0.0166 |
| C82U A111C A120G A145C C150A C169U U176C | 0.00704 |
| C82U A111C A120G A145C C150A C169U U176G | 0.00441 |
| C82U A111C A120G A145G C169U U176C | 0.0125 |
| C82U A111C A120G A145G C169U U176G | 0.00411 |
| C82U A111C A120G A145G C169U U176A | 0.0161 |
| C82U A111C A120G A145C C150G U176A | 0.00659 |
| C82U A111C A120G A145C C150G U176G | 0.00269 |
| C82U A111C A120G A145C C150G U176C | 0.0106 |
| C82U A111C A120G | 0.0151 |
| C82U A111C A120G A145G C150U C169A U176A | 0.0136 |
| C82U A111C A120G A145G C150U C169A U176C | 0.0142 |
| C82U A111C A120G A145G C150U C169A U176G | 0.00542 |
| C82U A111C A120G A145U C150A C169U U176G | 0.00435 |
| C82U A111C A120G A145U C150A C169U U176A | 0.0157 |
| C82U A111C A120G A145U C150A C169U U176C | 0.0106 |
| C82U A111C A120G A145G U176G | 0.00476 |
| C82U A111C A120G A145G U176A | 0.0143 |
| C82U A111C A120G A145G U176C | 0.0199 |
| C82U A111C A120G A145C C150U C169U U176G | 0.00401 |

| Variant | reverse-splicing fitness |
| --- | --- |
| C82U A111C A120G A145C C150U C169U U176A | 0.0137 |
| C82U A111C A120G A145C C150U C169U U176C | 0.0072 |
| C82U A111C A120G A145G C150A U176A | 0.0093 |
| C82U A111C A120G A145G C150A U176C | 0.017 |
| C82U A111C A120G A145G C150A U176G | 0.00528 |
| C82U A111C A120G A145U C150A U176G | 0.00424 |
| C82U A111C A120G A145U C150A U176A | 0.0119 |
| C82U A111C A120G A145U C150A U176C | 0.0144 |
| C82U A111C A120G A145G | 0.0154 |
| C82U A111C A120G A145U | 0.0159 |
| C82U A111C A120G A145C | 0.0118 |
| C82U A111C A120G A145C C150A C169A U176G | 0.00467 |
| C82U A111C A120G A145C C150A C169A U176A | 0.011 |
| C82U A111C A120G A145C C150A C169A U176C | 0.00587 |
| C82U A111C A120G A145G C150A C169U U176G | 0.00519 |
| C82U A111C A120G A145G C150A C169U U176A | 0.0158 |
| C82U A111C A120G A145G C150A C169U U176C | 0.0153 |
| C82U A111C A120G A145G C150U U176C | 0.0169 |
| C82U A111C A120G A145G C150U U176G | 0.00547 |
| C82U A111C A120G A145G C150U U176A | 0.00886 |
| C82U A111C A120G A145G C150A C169A U176A | 0.0155 |

| Variant | reverse-splicing fitness |
| --- | --- |
| C82U A111C A120G A145G C150A C169A U176G | 0.00573 |
| C82U A111C A120G A145G C150A C169A U176C | 0.0218 |
| C82U A111C A120G A145C C150U C169G | 0.00662 |
| C82U A111C A120G A145C C150U C169U | 0.00593 |
| C82U A111C A120G A145C C150U C169A | 0.00786 |
| C82U A111C A120G A145G C150G C169A U176G | 0.00775 |
| C82U A111C A120G A145G C150G C169A U176A | 0.0117 |
| C82U A111C A120G A145G C150G C169A U176C | 0.011 |
| C82U A111C A120G A145U C150G C169G | 0.00689 |
| C82U A111C A120G A145U C150G C169U | 0.00734 |
| C82U A111C A120G A145U C150G C169A | 0.00828 |
| C82U A111C A120G A145G C150U | 0.0115 |
| C82U A111C A120G A145G C150G | 0.00776 |
| C82U A111C A120G A145G C150A | 0.00814 |
| C82U A111C A120G A145C C169U U176G | 0.00308 |
| C82U A111C A120G A145C C169U U176C | 0.00886 |
| C82U A111C A120G A145C C169U U176A | 0.0137 |
| C82U A111C A120G A145U C150A C169A U176C | 0.00775 |
| C82U A111C A120G A145U C150A C169A U176A | 0.0102 |
| C82U A111C A120G A145U C150A C169A U176G | 0.00481 |
